± gives the uncertainty stated by the source.
experiment: amyloid nucleation score (Sup35N fusion, yeast selection) (log enrichment); library NNK3; higher = more nucleation; inactive = no reads after selection
Summary of the method: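 DiMSum was used to calculate nucleation scores as log enrichment of output over input reads, centred on the mode score of non-aggregating sequences. Sequences with fewer than 100 input reads were not scored. Input and output came from Illumina sequencing of plasmid inserts in psi-negative yeast expressing peptides of 20 random codons fused to Sup35N, induced 24 hours with 100 μM copper sulfate and then grown 7 days at 30°C on medium lacking adenine and uracil.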

Substance	amyloid nucleation score
LVSDEPNLGFDN	inactive
LVSFWSVRFIICYLRLGLSC	inactive
LVSKAGLSLRLKG	inactive
LVSVGSIVTSLEFNTGCLWA	inactive
LVVGISRPMSTGSMASWQWR	inactive
LVVIDTIIHCLFKTAQCAWF	inactive
LVVKFSLDKWPRQNVSSLAS	inactive
LVVNRDYFCRSVGPIVLLEP	inactive
LVWSSSEVVFFA	inactive
LVWYKSDLISIVRHTVDSCC	inactive
LVYRMMGSWVGPIRVYFNML	inactive
LVYSDCHRIISHWFFRYTWQ	inactive
LWHVF	inactive
LWIIKGYKSYSNHQWNWGM	inactive
LWINCSWMFNWM	2.43 ± 0.07
LWLVIN	inactive
LWMCLLMRRR	inactive
LWTYIWDRFEDPVECLRWWN	inactive
LWVSLFVSDVTRLFCLGFVT	inactive
LWVTM	1.37 ± 0.14
LWYHWHNA	inactive
LWYSCLVSRSSIVSHGWVGL	inactive
LWYYCTQEVIARRDEKA	inactive

Substance	amyloid nucleation score
LYAFRDSCDTFSC	inactive
LYCCTGEHGSLASVCSSTLT	-0.852 ± 1.5
LYELGQKFLVGHWQRGLKP	inactive
LYGLVWYTQVGLLNVYSKIY	1.24 ± 0.18
LYLAMRENMWFEPEVNGCYG	inactive
LYLGLFVSWCSLKSTAWFGK	inactive
LYLRQKYLRALTNFNFPRAT	inactive
LYLRV	inactive
LYLSLFGQVPYSS	-0.473 ± 0.98
LYLTSCDIYGAGTIGRWVAV	inactive
LYMFHCAFILSIFMFHTPVH	inactive
LYMSWAKTLFGECNCSHVLL	inactive
LYNRKHFTSM	-0.638 ± 0.96
LYQRYMDMTSYCS	inactive
LYRVLSYDLRLDKWCYKTLW	inactive
LYSECNDPNKA	inactive
LYSFSANNDMVHMYRNQVRF	inactive
LYTAATLGSTRLAYCKKEWG	inactive
LYTDVEYRVWCVTFLVRPSK	inactive
LYVFCLAILPLDVLRFSLML	inactive
LYVFRCHLVVNDLNATNCSR	inactive
LYVYTMR	inactive
LYWMVSMTTDR	inactive

Substance	amyloid nucleation score
LYWRSTGVSVWVRWVLYG	inactive
MALEVFF	inactive
MALWASSKAEVIVVIKCLGD	inactive
MAMLS	inactive
MAQIRATIFMMMSANVDRYM	inactive
MAVLHSLFVKVQLMTSNFS	inactive
MCDKV	inactive
MCMSAFEGSSIICDCMVVLL	1.85 ± 0.088
MCMYVKMYLNGSLFVYMTSK	inactive
MCQAIDSNTYWYLAHCGNSS	0.494 ± 0.25
MCSAEA	inactive
MCTNYYITCRSKSCVICRRI	2.31 ± 0.059
MDEVWFPSKGCDLAVRNCLM	inactive
MDKYTRTRPQTRGRAVSCYY	inactive
MDLMPSYSTWKLFFKAI	inactive
MDQMPKKYLVLAAAAVVRMV	inactive
MDVVLRINLKQGRYPGTNAH	2.1 ± 0.091
MELSGSIMRIEMLYFFMRHK	inactive
MEVDQTYVRIWC	1.31 ± 0.14
MFFQLVCYFNLSTVMTSYFE	0.593 ± 0.14
MFGNIRTFAPTITCMGDFTL	inactive
MFGWRNSTLAVKAGSDTRLP	inactive
MFKITACIFNIAYSSWFFST	inactive

Substance	amyloid nucleation score
MFVGP	inactive
MFVRYIAISYWYQLTWEFSV	inactive
MGHDCHRDW	inactive
MGLLSTFFVEFFKT	inactive
MGNFSFE	inactive
MGNYRALCLLLTWLRFLAIE	-0.015 ± 0.96
MGPSVMFCIDLSSWKHLIRL	0.87 ± 0.16
MGSGIFCDLFHGVMYCMQVR	inactive
MGYPTISFCFNVYAFSVRIV	0.697 ± 0.2
MHATIMVVDRESFHGLGWKS	inactive
MIFLLTSIL	inactive
MILCLLRKAQFCY	inactive
MILFC	inactive
MINWYGRTNPLCDPGLLRGI	inactive
MIVARMLVSIYKSWTIILRY	inactive
MIYAFVGYGVGTSGGVARES	inactive
MIYSYTNFGNIWKVCQVMRH	2.39 ± 0.057
MIYYMLWTYWALPKPWNEYI	0.971 ± 0.16
MKDMSFTYLLFKSHCAWVSL	inactive
MKLWFNTARLDMKVSKTVYS	inactive
MKYYVR	inactive
MLCDVSKVDLSRLLGAGVYD	inactive
MLELLTFTDFLGTTDITRNS	-0.113 ± 0.39

Substance	amyloid nucleation score
MLFHDSVSSTWRIFELCSRC	inactive
MLGLCPFKSDWLLIYRSMWC	1.32 ± 0.15
MLHASV	inactive
MLLFHLVVQLNDLLSAPLRA	inactive
MLLYYEEGLCIFLLSLNPVC	inactive
MLNLRCSKCGMMPLRNRIVS	inactive
MLSDSLHHSSNIVTLVTRGS	inactive
MLSFLYRELN	inactive
MLSWLYTSGRSRYVILLQP	inactive
MLVVWLFMWFIHINKRWDGA	inactive
MLWEVDLNVRTSMADT	inactive
MMNSWDPVMLYSYGNTEVVH	inactive
MNEGLYS	inactive
MNEKENMMNTQWIVCNTCAK	inactive
MNFPR	inactive
MNGDSAMWFSISS	inactive
MNRMCVLLVNFCVDTD	1.9 ± 0.06
MNTACS	inactive
MNWFELFAHCLLKQFQRTLQ	inactive
MNYVIIFTWN	2.76 ± 0.071
MPDLITGGKPAIRWYYGSDS	inactive
MPIGTSSYFFSQKICHYTSR	1.77 ± 0.09
MPIRCSTSLHWTTTMWMTVW	inactive

Substance	amyloid nucleation score
MPWGTWGAS	inactive
MPWKSMAHFYALEFDLRCLR	0.619 ± 0.22
MQLDLMCCLVSCTMNTFSSR	1.54 ± 0.11
MQSAVNVV	inactive
MQVILNNVFSTFPLPAGLLR	inactive
MRAFIRYCIFVCMSAYRNMV	-0.352 ± 0.73
MRFSKGNYLYMREGHKGFCG	inactive
MRGWLRLSELCKGVLIVGFA	inactive
MRIRIPTSNNEGYPIFMSAL	inactive
MRLYLFSRYPLARTTFMSTC	inactive
MRMFCDIYLIVIDTEFMLHF	inactive
MRSWRMRGSERFAHSLRGYL	inactive
MRVYFMWATTWLA	inactive
MRYLDLYGRARNVRIRVRRT	inactive
MSCRARRTNLF	inactive
MSCYN	inactive
MSFWY	inactive
MSGNA	inactive
MSHDTFDV	inactive
MSLGFALVSILVCF	inactive
MSMRLRIYKFFEICANSMMP	inactive
MSRTKPLGF	inactive
MSSPAPFWSVNSVLAIKNLF	inactive

Substance	amyloid nucleation score
MSSQCWRQIGWDTCARS	inactive
MSSQVMALIRFQFHSHDSHG	1.36 ± 0.16
MSSYKCSECLRGHRGTPLPV	inactive
MSVQHER	inactive
MTCTVRSEVYIHFNFVAIKF	0.299 ± 0.33
MTCWTTYNGTDIEGKGGINN	inactive
MTFIRPKLGKKPGMYGTNIV	inactive
MTGLLMSKTARFCRRNR	inactive
MTNLCRRVGKKFPNRSHSGY	inactive
MTPGFCLPK	inactive
MTRCLSFWTRSQVLYFCWKL	inactive
MTVRETLYWVRS	inactive
MTVWNSWNINIVWVMFLSA	inactive
MTYCRVFRNRASDKPYMMRL	inactive
MTYVGGSVQYGRSLRHRIDR	inactive
MVCISL	inactive
MVDSRLNSSLNYSLCLSDVK	inactive
MVFCNGFGYGASNFGNNSAS	inactive
MVFMADK	0.268 ± 0.2
MVLDDYIRKGG	0.073 ± 0.33
MVLYYSLILFAHCLKLARHN	inactive
MVRMDHCQVEDSMVTNVD	inactive
